For data set [1], the system named is HeLa Kyoto. Briefly: melting temperature (median over replicates), in situ; higher = more thermally stable.
Data set [2] relates to HeLa Kyoto. Briefly: solubility change mitosis vs G1/S (difference of NP-40 vs SDS log2 ratios) (log2 ratio difference); higher = more soluble in mitosis.
The subject of data set [3] is HeLa Kyoto. Briefly: thermal stability score vs G1/S (z-score of summed log2 fold changes over temperatures); higher = more thermally stable than in G1/S.
Data set [4] deals with HeLa Kyoto. Briefly: solubility in G1/S (NP-40 vs SDS abundance) (log2 ratio); higher = more soluble. Particulars: cell cycle stage: G1/S.
Where [5] appears, read: cell cycle stage: early G1 (4.5 h after nocodazole release).
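Throughout, for melting temperature (median over replicates), in situ: HeLa Kyoto cells synchronized by double thymidine or nocodazole block, proteins quantified by TMT10plex mass spectrometry, three independent biological replicates.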
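Throughout, for solubility change mitosis vs G1/S (difference of NP-40 vs SDS log2 ratios): synchronized HeLa Kyoto cells (double thymidine block for G1/S, nocodazole release for mitosis), protein amounts in NP-40 versus SDS lysates quantified by mass spectrometry, three biological replicates.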
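Throughout, for solubility in G1/S (NP-40 vs SDS abundance): HeLa Kyoto cells arrested at G1/S by double thymidine block, proteins quantified by TMT10plex mass spectrometry in mild NP-40 versus SDS extracts, three biological replicates.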
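Throughout, for thermal stability score vs G1/S (z-score of summed log2 fold changes over temperatures): synchronized HeLa Kyoto cells, proteins quantified by TMT10plex mass spectrometry, three biological replicates, mitosis taken 0.5 h after nocodazole release, G1/S directly after double thymidine block.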

With “MTILTYPFKNLPTASKWALRFSIRPLSCSSQLRAAPAVQTKTKKTLAKPNIRNVVVVDGVRTPFLLSGTSYKDLMPHDLARAALTGLLHRTSVPKEVVDYIIFGTVIQEVKTSNVAREAALGAGFSDKTPAHTVTMACISANQAMTTGVGLIASGQCDVIVAGGVELMSDVPIRHSRKMRKLMLDLNKAKSMGQRLSLISKFRFNFLAPELPAVSEFSTSETMGHSADRLAAAFAVSRLEQDEYALRSHSLAKKAQDEGLLSDVVPFKVPGKDTVTKDNGIRPSSLEQMAKLKPAFIKPYGTVTAANSSFLTDGASAMLIMAEEKALAMGYKPKAYLRDFMYVSQDPKDQLLLGPTYATPKVLEKAGLTMNDIDAFEFHEAFSGQILANFKAMDSDWFAENYMGRKTKVGLPPLEKFNNWGGSLSLGHPFGATGCRLVMAAANRLRKEGGQYGLVAACAAGGQGHAMIVEAYPK [HADHB]”, the melting temperature in data set [1] (cell cycle stage: G1/S) and in data set [1] (cell cycle stage: mitosis) was 50.7 °C throughout. Also, in data set [2], the “solubility change mitosis (log2)” value was -0.0395. Moreover, the thermal stability score was -0.727 in data set [3] (setting [5]) and -0.0884 in data set [3] (cell cycle stage: mitosis). Further, in data set [4], the “solubility in G1/S (log2)” value is 0.274.

Consider “MTKAGSKGGNLRDKLDGNELDLSLSDLNEVPVKELAALPKATILDLSCNKLTTLPSDFCGLTHLVKLDLSKNKLQQLPADFGRLVNLQHLDLLNNKLVTLPVSFAQLKNLKWLDLKDNPLDPVLAKVAGDCLDEKQCKQCANKVLQHMKAVQADQERERQRRLEVEREAEKKREAKQRAKEAQERELRKREKAEEKERRRKEYDALKAAKREQEKKPKKEANQAPKSKSGSRPRKPPPRKHTRSWAVLKLLLLLLLFGVAGGLVACRVTELQQQPLCTSVNTIYDNAVQGLRRHEILQWVLQTDSQQ [LRRC59]”, for which the melting temperature in data set [1] (cell cycle stage: G1/S) worked out at 56.7 °C; in data set [1] (cell cycle stage: mitosis), 54 °C. Further, the “solubility change mitosis (log2)” value in data set [2] was determined as 0.236. Moreover, the thermal stability score was 2.96 in data set [3] (setting [5]) and -1.3 in data set [3] (cell cycle stage: mitosis). Moreover, the “solubility in G1/S (log2)” value in data set [4] is 0.751.

Turning to “MTKFGFLRLSYEKQDTLLKLLILSMAAVLSFSTRLFAVLRFESVIHEFDPYFNYRTTRFLAEEGFYKFHNWFDDRAWYPLGRIIGGTIYPGLMITSAAIYHVLHFFHITIDIRNVCVFLAPLFSSFTTIVTYHLTKELKDAGAGLLAAAMIAVVPGYISRSVAGSYDNEGIAIFCMLLTYYMWIKAVKTGSICWAAKCALAYFYMVSSWGGYVFLINLIPLHVLVLMLTGRFSHRIYVAYCTVYCLGTILSMQISFVGFQPVLSSEHMAAFGVFGLCQIHAFVDYLRSKLNPQQFEVLFRSVISLVGFVLLTVGALLMLTGKISPWTGRFYSLLDPSYAKNNIPIIASVSEHQPTTWSSYYFDLQLLVFMFPVGLYYCFSNLSDARIFIIMYGVTSMYFSAVMVRLMLVLAPVMCILSGIGVSQVLSTYMKNLDISRPDKKSKKQQDSTYPIKNEVASGMILVMAFFLITYTFHSTWVTSEAYSSPSIVLSARGGDGSRIIFDDFREAYYWLRHNTPEDAKVMSWWDYGYQITAMANRTILVDNNTWNNTHISRVGQAMASTEEKAYEIMRELDVSYVLVIFGGLTGYSSDDINKFLWMVRIGGSTDTGKHIKENDYYTPTGEFRVDREGSPVLLNCLMYKMCYYRFGQVYTEAKRPPGFDRVRNAEIGNKDFELDVLEEAYTTEHWLVRIYKVKDLDNRGLSRT [STT3A]”, the melting temperature was found to be 53.7 °C in data set [1] (cell cycle stage: G1/S) and 54 °C in data set [1] (cell cycle stage: mitosis). In addition, the “solubility change mitosis (log2)” value in data set [2] is -0.105. Also, the figures for the thermal stability score in data set [3] (setting [5]) and in data set [3] (cell cycle stage: mitosis) were 1.3 and 3.3, respectively. The “solubility in G1/S (log2)” value in data set [4] is -0.102.

For the sequence “MTLESIMACCLSEEAKEARRINDEIERQLRRDKRDARRELKLLLLGTGESGKSTFIKQMRIIHGSGYSDEDKRGFTKLVYQNIFTAMQAMIRAMDTLKIPYKYEHNKAHAQLVREVDVEKVSAFENPYVDAIKSLWNDPGIQECYDRRREYQLSDSTKYYLNDLDRVADPAYLPTQQDVLRVRVPTTGIIEYPFDLQSVIFRMVDVGGQRSERRKWIHCFENVTSIMFLVALSEYDQVLVESDNENRMEESKALFRTIITYPWFQNSSVILFLNKKDLLEEKIMYSHLVDYFPEYDGPQRDAQAAREFILKMFVDLNPDSDKIIYSHFTCATDTENIRFVFAAVKDTILQLNLKEYNLV [GNAQ]”, the melting temperature in data set [1] (cell cycle stage: G1/S) turned out to be 54.7 °C; in data set [1] (cell cycle stage: mitosis), 54.3 °C. Besides, in data set [2], the “solubility change mitosis (log2)” value was -0.0689. The thermal stability score in data set [3] (setting [5]) was -0.77; in data set [3] (cell cycle stage: mitosis) it was -0.236. For the same sequence, the “solubility in G1/S (log2)” value in data set [4] is -0.282.

As for “MTMDGDSSTTDASQLGISADYIGGSHYVIQPHDDTEDSMNDHEDTNGSKESFREQDIYLPIANVARIMKNAIPQTGKIAKDAKECVQECVSEFISFITSEASERCHQEKRKTINGEDILFAMSTLGFDSYVEPLKLYLQKFREAMKGEKGIGGAVTATDGLSEELTEEAFTNQLPAGLITTDGQQQNVMVYTTSYQQISGVQQIQFS [NFYB]”, the melting temperature in data set [1] (cell cycle stage: G1/S) and in data set [1] (cell cycle stage: mitosis) was 54.5 °C throughout. Further, the “solubility change mitosis (log2)” value in data set [2] stood at 0.064. Besides, the thermal stability score in data set [3] (setting [5]) was 0.178; in data set [3] (cell cycle stage: mitosis), 0.0131. Also, in data set [4], the “solubility in G1/S (log2)” value came out at 0.036.

(Values after the supplement of paper PMC5998384.)
